Laboratory results taken from PMC4358367, “Structural basis of diverse membrane target recognitions by ankyrins” (eLife, 2014).
Where no end group is shown, it is not given here.

Target: T1, AnkB_repeats site 3 mutant 'LFL' (Leu366, Phe399 and Leu432 to Gln) (human, UniProt Q01484 28-873, Leu366 substituted with Gln | Phe399 substituted with Gln | Leu432 substituted …)
T1 sequence: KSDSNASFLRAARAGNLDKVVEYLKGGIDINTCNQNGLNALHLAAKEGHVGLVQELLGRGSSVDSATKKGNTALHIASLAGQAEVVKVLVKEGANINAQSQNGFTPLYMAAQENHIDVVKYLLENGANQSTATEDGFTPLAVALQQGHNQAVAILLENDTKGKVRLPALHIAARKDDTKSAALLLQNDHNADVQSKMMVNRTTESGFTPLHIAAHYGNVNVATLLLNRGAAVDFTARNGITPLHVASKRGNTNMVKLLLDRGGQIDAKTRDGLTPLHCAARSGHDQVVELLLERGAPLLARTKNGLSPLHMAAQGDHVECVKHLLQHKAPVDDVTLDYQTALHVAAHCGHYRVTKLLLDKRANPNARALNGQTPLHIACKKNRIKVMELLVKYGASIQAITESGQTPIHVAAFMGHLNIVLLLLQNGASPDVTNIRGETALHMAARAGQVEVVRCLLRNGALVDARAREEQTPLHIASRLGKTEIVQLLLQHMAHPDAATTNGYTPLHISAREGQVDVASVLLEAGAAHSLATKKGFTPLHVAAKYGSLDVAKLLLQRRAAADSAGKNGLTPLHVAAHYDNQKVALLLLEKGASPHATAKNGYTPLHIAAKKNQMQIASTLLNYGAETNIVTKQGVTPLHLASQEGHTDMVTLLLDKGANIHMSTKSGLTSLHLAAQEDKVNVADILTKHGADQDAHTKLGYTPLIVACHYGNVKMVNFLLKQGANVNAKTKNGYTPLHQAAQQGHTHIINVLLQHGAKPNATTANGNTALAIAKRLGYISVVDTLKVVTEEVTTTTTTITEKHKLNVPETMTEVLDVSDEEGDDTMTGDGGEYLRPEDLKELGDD
Assay: FP

B1: Cav1.3 peptide (mouse Cav1.3 residues 2134–2166), FITC-labeled (peptide, UniProt Q99246-4 2134-2166, looked up)
peptide: ELQDFGPGYSDEEPDPGREEEDLADEMICITTL
modifications: also: FITC label (position not given here)
notes: voltage-gated calcium channel Cav1.3, mouse, residues 2134-2166; also called voltage-gated calcium channel Cav1.3 peptide; source: synthetic peptide (commercially synthesized)
B1 showed a Kd of 4 µM.
